Test results from PMC5399442, “Fatty acid synthase cooperates with protrudin to facilitate membrane outgrowth of cellular protrusions” (Scientific Reports, 2017).
Changes are numbered by the printed parent chain.

B1: wild-type protrudin with a C-terminal myc tag (natural protein, human, UniProt Q5T4F4-2 1-404, looked up)
chain: MQTSEREGSGPELSPSVMPEAPLESPPFPTKSPAFDLFNLVLSYKRLEIYLEPLKDAGDGVRYLLRWQMPLCSLLTCLGLNVLFLTLNEGAWYSVGALMISVPALLGYLQEVCRARLPDSELMRRKYHSVRQEDLQRGRLSRPEAVAEVKSFLIQLEAFLSRLCCTCEAAYRVLHWENPVVSSQFYGALLGTVCMLYLLPLCWVLTLLNSTLFLGNVEFFRVVSEYRASLQQRMNPKQEEHAFESPPPPDVGGKDGLMDSTPALTPTEDLTPGSVEEAEEAEPDEEFKDAIEEDDEGAPCPAEDELALQDNGFLSKNEVLRSKVSRLTERLRKRYPTNNFGNCTGCSATFSVLKKRRSCSNCGNSFCSRCCSFKVPKSSMGATAPEAQRETVFVCASCNQTLSK
notes: protrudin (ZFYVE27), human, from cDNA; also called WT-protrudin; protrudin-myc; source: HEK293T, transfected (pcDNA3.1-protrudin-myc), in lysate; not shown: c-Myc, C-terminal, kept
B2: protrudin with DiZPK incorporated at site D134, C-terminal myc tag (natural protein, human, UniProt Q5T4F4-2 1-404, looked up)
chain: B1 chain with D134K
modifications: DiZPK (3-(3-methyl-3H-diazirin-3-yl)-propamino-carbonyl-Nε-L-lysine) at position 134
notes: protrudin (ZFYVE27), human; codon of D134 changed to the amber codon (TAG) and read as DiZPK, a lysine derivative; The new residue is written as K because DiZPK is an Nε-modified lysine; source: HEK293T, transfected with the MbPylRS/MbtRNACUA pair, cultured with DiZPK, in lysate; not shown: c-Myc, C-terminal, kept

Experiments:
[1] = target: the molecule itself; test: SDS-resistant dimer on SDS-PAGE with immunoblot; HEK293T cells expressing WT-protrudin exposed to UV light (365 nm) as control; SDS-PAGE and immunoblot with anti-Myc antibody
[2] = target: the molecule itself; test: cross-linking; photo-crosslinking by DiZPK in living HEK293T cells, 48 h after transfection, UV 365 nm for 10 min; SDS-PAGE and immunoblot with anti-Myc antibody

Row | Protein | stoichiometry N [1] | stoichiometry N [2]
1 | B1 | 2 | –
2 | B2 | – | 2
